Assay results from patent publication US8969060B2, “Modified glucose dehydrogenase” (Ikeda Food Research Co., Ltd., priority 2011, dated 2015).
Residue numbers refer to the chain shown, from its start. Names and notes keep the numbering of the source.

B1: H341G: modified GLD: SEQ ID NO: 1 with substitution H341G (protein, listed as Aspergillus terreus)
chain: MLGKLSFLSALSLAVAAPLSNSTSAKYDYIVIGGGTSGLAVANRLSEDPNVNVLILEAGGSVWNNPNVTNVDGYGLAFGSDIDWQYQSVNQPYGGNLSQVLRAGKALGGTSTINGMAYTRAEDVQIDAWETIGNTGWTWKNLFPYYRKSENFTVPTKSQTSLGASYEAGAHGHEGPLDVAFTQIESNNLTTYLNRTFQGMGLPWTEDVNGGKMRGFNLYPSTVNLEEYVREDAARAYYWPYKSRPNLHVLLNTFANRIVWDGEAHDGHITASGVEITSRNGTVRVINAEKEVIVSAGALKSPAILELSGIGNPSVLDKHNIPVKVNLPTVGENLQDQVNSGMDASGNTSISGTKAVSYPDVYDVFGDEAESVAKQIRANLKQYAADTAKANGNIMKAADLERLFEVQYDLIFKGRVPIAEVLNYPGSATSVFAEFWALLPFARGSVHIGSSNPAEFPVINPNYFMLDWDAKSYVAVAKYIRRSFESYPLSSIVKESTPGYDVIPRNASEQSWKEWVFDKNYRSNFHPVGTAAMMPREIGGVVDERLNVYGTTNVRVVDASVLPFQVCGHLVSTLYAVAERAADLIKADAGRR
modifications: SIGNAL (1)..(19)
B2: D343L: modified GLD: SEQ ID NO: 1 with substitution D343L (protein, listed as Aspergillus terreus)
chain: B1 chain with G341H, D343L
modifications: SIGNAL (1)..(19)
B3: H341N: modified GLD: SEQ ID NO: 1 with substitution H341N (protein, listed as Aspergillus terreus)
chain: B1 chain with G341N
modifications: SIGNAL (1)..(19)
B4: H341Q: modified GLD: SEQ ID NO: 1 with substitution H341Q (protein, listed as Aspergillus terreus)
chain: B1 chain with G341Q
modifications: SIGNAL (1)..(19)
B5: D343M: modified GLD: SEQ ID NO: 1 with substitution D343M (protein, listed as Aspergillus terreus)
chain: B1 chain with G341H, D343M
modifications: SIGNAL (1)..(19)
B6: D343R: modified GLD: SEQ ID NO: 1 with substitution D343R (protein, listed as Aspergillus terreus)
chain: B1 chain with G341H, D343R
modifications: SIGNAL (1)..(19)
B7: D343Q: modified GLD: SEQ ID NO: 1 with substitution D343Q (protein, listed as Aspergillus terreus)
chain: B1 chain with G341H, D343Q
modifications: SIGNAL (1)..(19)
B8: D343A: modified GLD: SEQ ID NO: 1 with substitution D343A (protein, listed as Aspergillus terreus)
chain: B1 chain with G341H, D343A
modifications: SIGNAL (1)..(19)
B9: H341I: modified GLD: SEQ ID NO: 1 with substitution H341I (protein, listed as Aspergillus terreus)
chain: B1 chain with G341I
modifications: SIGNAL (1)..(19)
B10: H341M: modified GLD: SEQ ID NO: 1 with substitution H341M (protein, listed as Aspergillus terreus)
chain: B1 chain with G341M
modifications: SIGNAL (1)..(19)
B11: H341K: modified GLD: SEQ ID NO: 1 with substitution H341K (protein, listed as Aspergillus terreus)
chain: B1 chain with G341K
modifications: SIGNAL (1)..(19)
B12: D343F: modified GLD: SEQ ID NO: 1 with substitution D343F (protein, listed as Aspergillus terreus)
chain: B1 chain with G341H, D343F
modifications: SIGNAL (1)..(19)
B13: D343E: modified GLD: SEQ ID NO: 1 with substitution D343E (protein, listed as Aspergillus terreus)
chain: B1 chain with G341H, D343E
modifications: SIGNAL (1)..(19)
B14: H341S: modified GLD: SEQ ID NO: 1 with substitution H341S (protein, listed as Aspergillus terreus)
chain: B1 chain with G341S
modifications: SIGNAL (1)..(19)
B15: H341R: modified GLD: SEQ ID NO: 1 with substitution H341R (protein, listed as Aspergillus terreus)
chain: B1 chain with G341R
modifications: SIGNAL (1)..(19)
B16: D343H: modified GLD: SEQ ID NO: 1 with substitution D343H (protein, listed as Aspergillus terreus)
chain: B1 chain with G341H, D343H
modifications: SIGNAL (1)..(19)
B17: D343I: modified GLD: SEQ ID NO: 1 with substitution D343I (protein, listed as Aspergillus terreus)
chain: B1 chain with G341H, D343I
modifications: SIGNAL (1)..(19)
B18: H341V: modified GLD: SEQ ID NO: 1 with substitution H341V (protein, listed as Aspergillus terreus)
chain: B1 chain with G341V
modifications: SIGNAL (1)..(19)
B19: D343K: modified GLD: SEQ ID NO: 1 with substitution D343K (protein, listed as Aspergillus terreus)
chain: B1 chain with G341H, D343K
modifications: SIGNAL (1)..(19)
B20: H341Y: modified GLD: SEQ ID NO: 1 with substitution H341Y (protein, listed as Aspergillus terreus)
chain: B1 chain with G341Y
modifications: SIGNAL (1)..(19)
B21: H341P: modified GLD: SEQ ID NO: 1 with substitution H341P (protein, listed as Aspergillus terreus)
chain: B1 chain with G341P
modifications: SIGNAL (1)..(19)

Assay: Relative enzymatic activity of GLD (DCIP/1-m-PMS, plate reader, yeast culture supernatant) with proflavin hydrochloride present
Assay type: biochemical
Conditions: site-specific mutants, inhibitor final concentration 1 mM
Experimental: (§1) The susceptibility defined in the present specification is evaluated in terms of a relative activity that is determined in a system wherein the inhibitor coexists or not. The relative activity is derived from a relative value (%) of an enzymatic activity (a sample value) obtained with the addition of the inhibitor in the determination of the enzymatic activity described in the present specification as compared with an enzymatic activity (a blank value) as “100%” obtained without the addition of the inhibitor in the same determination. Thus, the higher the relative activity is, the less the susceptibility to the inhibitor is (or the more the susceptibility to the inhibitor is reduced), vice versa.
(§2) The enzymatic activity is determined in the following manner in Examples 3 and 6 wherein a plate reader (Japan Molecular Device Corporation, SpectraMax Plus384) is used. Thus, culture supernatant that had been diluted in advance with an appropriate magnification is added to a 96-well microplate with an amount of 100 μl per well. A reagent for the determination of the enzymatic activity comprising phosphate buffer (pH 7.0), 1.0 M D-glucose, 3 mM DCIP, 3 mM 1-m-PMS and methanol with a volume ratio of 0.1:1:0.14:0.2:0.06 is added to the 96-well microplate with an amount of 100 μl per well, and a change in the absorbance of DCIP at 600 nm (ΔABS/min) is then determined. The enzymatic activity can be calculated by conversion in proportion to a change in the absorbance of an enzyme solution for which the enzymatic activity has already been known by the above-mentioned activity determination procedure using the spectrophotometer.
(§3) In the following examples, a value of the enzymatic activity determined by the spectrometer or plate reader using the above reagent composition is considered as a blank value. On the other hand, a sample value is determined using a methanol solution comprising the inhibitor such as 1,10-phenanthroline or proflavin hydrochloride at a final concentration of 1 mM instead of the methanol. Enzymatic activity (unit/mL)=(−ΔABS/16.3)×3.0/0.05×(Dilution ratio of enzyme) [Equation 1]

| Molecule | Relative Activity [%] Proflavin hydrochloride [%] |
| --- | --- |
| B1 | 76.9 |
| B2 | 73.2 |
| B3 | 81.5 |
| B4 | 68.1 |
| B5 | 52.9 |
| B6 | 37.9 |
| B7 | 47.0 |
| B8 | 51.2 |
| B9 | 64.4 |
| B10 | 71.4 |
| B11 | 61.3 |
| B12 | 65.7 |
| B13 | 58.2 |
| B14 | 76.6 |
| B15 | 69.5 |
| B16 | 62.8 |
| B17 | 71.5 |
| B18 | 71.4 |
| B19 | 51.8 |
| B20 | 77.8 |
| B21 | 43.2 |

Assay: Relative enzymatic activity of GLD (DCIP/1-m-PMS, plate reader, yeast culture supernatant) with 1,10-phenanthroline present
Assay type: biochemical
Conditions: site-specific mutants, inhibitor final concentration 1 mM
Experimental: as §1, §2, §3
Into each well of a 96-well microplate (manufactured by Nunc, Inc.), a YPD medium containing 125 μL of 1.0% (w/v) yeast extract (manufactured by BD), 2.0% (w/v) tryptone (manufactured by BD), 2.0% (w/v) glucose (manufactured by Wako Pure Chemical Industries, Ltd.) was dispensed, and the transformant colonies obtained in Example 2 were inoculated thereinto one by one.
After shaking culture at 30° C. and 1,000 rpm for 24 hours, the culture mixture was centrifuged and the supernatant was collected.
According to the above-mentioned method for the determination of enzymatic activity, a blank value and a sample value were determined using a plate reader, and the relative activity (%) was obtained by dividing the sample value by the blank value.

| Molecule | Relative Activity [%] 1,10-Phenanthroline [%] |
| --- | --- |
| B1 | 93.8 |
| B2 | 100.5 |
| B3 | 93.3 |
| B4 | 97.5 |
| B5 | 91.2 |
| B6 | 80.7 |
| B7 | 86.2 |
| B8 | 72.5 |
| B9 | 97.4 |
| B10 | 95.4 |
| B11 | 99.2 |
| B12 | 95.3 |
| B13 | 61.4 |
| B14 | 90.4 |
| B15 | 78.6 |
| B16 | 87.5 |
| B17 | 88.6 |
| B18 | 96.1 |
| B19 | 95.9 |
| B20 | 93.6 |
| B21 | 88.3 |
